The source of these data is PMC12038025.

Series [1] has as its system O35161. The experiment in a line: SEC-MALS. Background: In gel filtration, larger molecules generally elute earlier.
Series [2] addresses CELSR1 extracellular region, CADH1 through GAIN domains (residues 255-2477) (mouse) (UniProt O35161). The experiment in a line: SEC-MALS.

As usually defined, the stoichiometry N is a count of units in the complex or per binding partner.

As for “CELSR1 extracellular region, CADH1 through GAIN domains (residues 255-2477)”, the “percent dimer in the main peak” value in series [1] is given as “roughly 60% dimer”. Turning to “CELSR1 extracellular region, CADH1 through GAIN domains (residues 255-2477), O35161 255-2477”, the stoichiometry N in series [2] came out at 2.
